In the assay the target is soluble HLA-A*02:01 molecules (purified MHC with human β2-microglobulin) (human). Briefly: competition with radiolabeled standard peptide for soluble HLA-A*02:01.

For two molecules, Kd results are on record in patent US20170065713A1.

The term Kd denotes a measure of binding affinity in units of concentration. A low value points to a tighter complex.

NLLTTPKFT (modifications not checked) [gB342-350 peptide (HSV-1 glycoprotein B residues 342-350, …)]: the Kd was over 500 nM.

GIFEDRAPV (modifications not checked) [gB183-191 peptide (HSV-1 glycoprotein B residues 183-191, …)] had a dissociation constant (Kd) of over 500 nM.
